For the assay, the target named is HLA-A*02:01 (Homo sapiens, UniProt P04439, D140Y/D185E/D98H/E176V/E277Q/G131W/G231S/I119V/I121R/I166T/I218V/L300P/L318F/N151K/N90K/P208A/P217A/Q86G/Q94H/R138H/R169H/T345S). Kind of assay: MHC binding assay (UV-ligand exchange, beta2m ELISA). The following applies: binding of HLA-class I restricted peptides to HLA-A*02:01, β2m ELISA. The source says: Candidate peptides for T cell based therapies according to the present invention were further tested for their MHC binding capacity (affinity). The individual peptide-MHC complexes were produced by UV-ligand exchange, where a UV-sensitive peptide is cleaved upon UV-irradiation, and exchanged with the peptide of interest as analyzed. Only peptide candidates that can effectively bind and stabilize the peptide-receptive MHC molecules prevent dissociation of the MHC complexes. To determine the yield of the exchange reaction, an ELISA was performed based on the detection of the light chain (β2m) of stabilized MHC complexes. The assay was performed as generally described in Rodenko et al. (Rodenko et al., 2006).
96 well MAXISorp plates (NUNC) were coated over night with 2 ug/ml streptavidin in PBS at room temperature, washed 4× and blocked for 1 h at 37° C. in 2% BSA containing blocking buffer. Refolded HLA-A*02:01/MLA-001 monomers served as standards, covering the range of 15-500 ng/ml. Peptide-MHC monomers of the UV-exchange reaction were diluted 100 fold in blocking buffer. Samples were incubated for 1 h at 37° C., washed four times, incubated with 2 ug/ml HRP conjugated anti-β2m for 1 h at 37° C., washed again and detected with TMB solution that is stopped with […]. Absorption was measured at 450 nm. Candidate peptides that show a high exchange yield (preferably higher than 50%, most preferred higher than 75%) are generally preferred for a generation and production of antibodies or fragments thereof, and/or T cell receptors or fragments thereof, as they show sufficient avidity to the MHC molecules and prevent dissociation of the MHC complexes.
On the technique in general: An ELISA detects its analyte on a solid surface through an enzyme-linked reagent.

These results are taken from patent publication US10064928B2, “Peptides and combination of peptides for use in immunotherapy against CLL and other cancers” (IMMATICS BIOTECHNOLOGIES GMBH, priority 2015, dated 2018).

“16 (ALPGGAAVAAV; listed as Homo sapiens) [compound 16]”: the “Peptide Exchange (MHC class I binding score, peptide exchange yield)” value (“Peptide Exchange” for short) is on record as ““++++” (≥75% = ++++)”.

Turning to “291 (ILLNEDDLVTI; listed as Homo sapiens) [compound 291]”, the “Peptide Exchange” value is ““+++” (≥50 = +++)”. As for “356 (FLHDHQAEL; listed as Homo sapiens) [compound 356]”, the “Peptide Exchange” value was ““++” (≥20% = ++)”. In the case of “208 (ILLKTEGINL; listed as Homo sapiens) [compound 208]”, the “Peptide Exchange” value was ““+++” (≥50 = +++)”. The entry for “335 (YLYQEQYFI; listed as Homo sapiens) [compound 335]” is ““+++” (≥50 = +++)”; for “319 (QVIPQLQTV; listed as Homo sapiens) [compound 319]” it is ““+++” (≥50 = +++)”. “230 (FLQDSKVIFV; listed as Homo sapiens) [compound 230]”: the “Peptide Exchange” value is reported as ““+++” (≥50 = +++)”. Consider “98 (SLIKYFLFV; listed as Homo sapiens) [compound 98]”, for which the “Peptide Exchange” value is given as ““+” (≥10% = +)”. As for “374 (VLSVITEEL; listed as Homo sapiens) [compound 374]”, the “Peptide Exchange” value is reported as ““+++” (≥50 = +++)”. The entry for “138 (NLLDIDAPVTV; listed as Homo sapiens) [compound 138]” is ““+++” (≥50 = +++)”. Regarding “341 (LLAELPASVHA; listed as Homo sapiens) [compound 341]”, the “Peptide Exchange” value is recorded as ““+++” (≥50 = +++)”. For the substance “174 (VLAELPIIVV; listed as Homo sapiens) [compound 174]”, the “Peptide Exchange” value was ““+++” (≥50 = +++)”.

Take “381 (YLLEENKIKL; listed as Homo sapiens) [compound 381]”: the “Peptide Exchange” value is ““+++” (≥50 = +++)”. For “168 (YLLDQSFVM; listed as Homo sapiens) [compound 168]”, the “Peptide Exchange” value is given as ““++++” (≥75% = ++++)”. “359 (FMQDPMEVFV; listed as Homo sapiens) [compound 359]”: the “Peptide Exchange” value is reported as ““+++” (≥50 = +++)”. Turning to “45 (FLPELPADLEA; listed as Homo sapiens) [compound 45]”, the “Peptide Exchange” value is recorded as ““+++” (≥50 = +++)”. Turning to “264 (TILDYINVV; listed as Homo sapiens) [compound 264]”, the “Peptide Exchange” value is given as ““+++” (≥50 = +++)”. “334 (YLLEEKIASL; listed as Homo sapiens) [compound 334]”: the “Peptide Exchange” value is recorded as ““+++” (≥50 = +++)”. Take “242 (ILLGIQELL; listed as Homo sapiens) [compound 242]”: the “Peptide Exchange” value is on record as ““+++” (≥50 = +++)”. As to “302 (ILQDLTFVHL; listed as Homo sapiens) [compound 302]”, the “Peptide Exchange” value is given as ““+++” (≥50 = +++)”. For “46 (YIIDSAQAV; listed as Homo sapiens) [compound 46]”, the “Peptide Exchange” value was ““+++” (≥50 = +++)”. Consider “294 (ALLDQLHTLL; listed as Homo sapiens) [compound 294]”, for which the “Peptide Exchange” value is ““++++” (≥75% = ++++)”. Consider “88 (ILDEIGADVQA; listed as Homo sapiens) [compound 88]”, for which the “Peptide Exchange” value is reported as ““+++” (≥50 = +++)”. The entry for “310 (LLSTLHLLV; listed as Homo sapiens) [compound 310]” is ““+++” (≥50 = +++)”. Then “111 (KLWNVAAPLYL; listed as Homo sapiens) [compound 111]”, with ““+++” (≥50 = +++)”; and “160 (SLSFLVPSL; listed as Homo sapiens) [compound 160]”, with ““+++” (≥50 = +++)”. The entry for “357 (FLIQEIKTL; listed as Homo sapiens) [compound 357]” is ““+++” (≥50 = +++)”. In the case of “330 (VLMWEIYSL; listed as Homo sapiens) [compound 330]”, the “Peptide Exchange” value is ““+++” (≥50 = +++)”.

In the case of “34 (YLPYIFPNI; listed as Homo sapiens) [compound 34]”, the “Peptide Exchange” value is ““+++” (≥50 = +++)”. Take “274 (VLLEYHIAYL; listed as Homo sapiens) [compound 274]”: the “Peptide Exchange” value was ““+++” (≥50 = +++)”. The entry for “327 (VLIKWFPEV; listed as Homo sapiens) [compound 327]” is ““++++” (≥75% = ++++)”; for “347 (YLGPVSPSL; listed as Homo sapiens) [compound 347]” it is ““+++” (≥50 = +++)”; for “265 (TLLADDLEIKL; listed as Homo sapiens) [compound 265]” it is ““+++” (≥50 = +++)”. Then “237 (GLQENLDVVV; listed as Homo sapiens) [compound 237]”, with ““++++” (≥75% = ++++)”; and “15 (ALPEVSVEA; listed as Homo sapiens) [compound 15]”, with ““+++” (≥50 = +++)”; and “379 (YLAELVTPIL; listed as Homo sapiens) [compound 379]”, with ““+++” (≥50 = +++)”. On to “141 (QILSEIVEA; listed as Homo sapiens) [compound 141]”, for which the “Peptide Exchange” value is listed as ““++” (≥20% = ++)”. With “12 (ALGEDEITL; listed as Homo sapiens) [compound 12]”, the “Peptide Exchange” value is reported as ““+++” (≥50 = +++)”. Turning to “210 (KLLVQDFFL; listed as Homo sapiens) [compound 210]”, the “Peptide Exchange” value is given as ““+++” (≥50 = +++)”. With “67 (GLDDVTVEV; listed as Homo sapiens) [compound 67]”, the “Peptide Exchange” value is ““++” (≥20% = ++)”. For “21 (ALWAGLLTL; listed as Homo sapiens) [compound 21]”, the “Peptide Exchange” value is ““+++” (≥50 = +++)”. Turning to “89 (ILDFGTFQL; listed as Homo sapiens) [compound 89]”, the “Peptide Exchange” value is reported as ““+++” (≥50 = +++)”. For “278 (YLDDLLPKL; listed as Homo sapiens) [compound 278]”, the “Peptide Exchange” value is listed as ““+++” (≥50 = +++)”.

In the case of “317 (NLLAHIWAL; listed as Homo sapiens) [compound 317]”, the “Peptide Exchange” value is on record as ““+++” (≥50 = +++)”.

In the case of “124 (LLLEETEKQAV; listed as Homo sapiens) [compound 124]”, the “Peptide Exchange” value is ““+++” (≥50 = +++)”. With “256 (QLLPVSNVVSV; listed as Homo sapiens) [compound 256]”, the “Peptide Exchange” value is ““+++” (≥50 = +++)”.
